From patent publication US20260250410A1 (SICHUAN HUIYU PHARMACEUTICAL, published 2026)
Positions count from the first letter of the chain named. Like-named read-outs stand apart in the source and are kept apart here.

Legend:
[1] = biological target: T1, human CDCP1 on tumor cells (human, UniProt Q9H5V8 30-836); assay: cell-based or functional assay
T1 sequence (looked up): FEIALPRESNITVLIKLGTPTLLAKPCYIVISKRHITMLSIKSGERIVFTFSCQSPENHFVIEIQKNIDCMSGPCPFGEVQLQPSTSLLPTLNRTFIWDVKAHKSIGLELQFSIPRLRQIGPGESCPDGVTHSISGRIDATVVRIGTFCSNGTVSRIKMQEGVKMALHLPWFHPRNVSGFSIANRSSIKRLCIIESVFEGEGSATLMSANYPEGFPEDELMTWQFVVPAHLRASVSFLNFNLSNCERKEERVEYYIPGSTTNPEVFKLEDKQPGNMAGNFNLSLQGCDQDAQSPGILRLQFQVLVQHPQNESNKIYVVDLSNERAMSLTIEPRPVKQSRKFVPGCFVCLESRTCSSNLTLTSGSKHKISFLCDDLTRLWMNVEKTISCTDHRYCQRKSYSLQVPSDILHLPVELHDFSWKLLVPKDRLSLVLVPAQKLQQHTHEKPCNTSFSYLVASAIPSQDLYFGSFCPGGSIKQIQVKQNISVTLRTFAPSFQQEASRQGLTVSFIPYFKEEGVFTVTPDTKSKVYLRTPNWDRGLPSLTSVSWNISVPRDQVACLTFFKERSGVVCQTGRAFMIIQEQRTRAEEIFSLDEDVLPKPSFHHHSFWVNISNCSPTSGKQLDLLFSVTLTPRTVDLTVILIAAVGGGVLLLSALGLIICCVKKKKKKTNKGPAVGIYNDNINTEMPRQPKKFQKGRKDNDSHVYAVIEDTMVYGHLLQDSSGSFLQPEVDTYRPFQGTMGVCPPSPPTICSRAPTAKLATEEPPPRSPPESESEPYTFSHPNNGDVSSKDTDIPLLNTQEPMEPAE

[2] = biological target: T1, human CDCP1 on tumor cells; assay: cell-based or functional assay; remark: listed apart in the source
[3] = biological target: T1, human CDCP1 on tumor cells; assay: cell-based or functional assay; remark: listed apart in the source
[4] = biological target: T1, human CDCP1 on tumor cells; assay: laser confocal microscopy, HCC1806 cells, dye-labeled antibody
Source text: The lysosomes were labeled with red fluorescence, and the relative position changes and colocalization of green fluorescence and red fluorescence in the cells were detected to determine whether the antibodies were colocalized with lysosomes after endocytosis into the cells.

huCDCP1-his = biological target: T2, huCDCP1-his (human, UniProt Q9H5V8 30-667, limits assumed); assay: SPR (Caterra), antigen immobilized
T2 construct: also called human CDCP1 antigen; not shown: his tag
T2 sequence (looked up): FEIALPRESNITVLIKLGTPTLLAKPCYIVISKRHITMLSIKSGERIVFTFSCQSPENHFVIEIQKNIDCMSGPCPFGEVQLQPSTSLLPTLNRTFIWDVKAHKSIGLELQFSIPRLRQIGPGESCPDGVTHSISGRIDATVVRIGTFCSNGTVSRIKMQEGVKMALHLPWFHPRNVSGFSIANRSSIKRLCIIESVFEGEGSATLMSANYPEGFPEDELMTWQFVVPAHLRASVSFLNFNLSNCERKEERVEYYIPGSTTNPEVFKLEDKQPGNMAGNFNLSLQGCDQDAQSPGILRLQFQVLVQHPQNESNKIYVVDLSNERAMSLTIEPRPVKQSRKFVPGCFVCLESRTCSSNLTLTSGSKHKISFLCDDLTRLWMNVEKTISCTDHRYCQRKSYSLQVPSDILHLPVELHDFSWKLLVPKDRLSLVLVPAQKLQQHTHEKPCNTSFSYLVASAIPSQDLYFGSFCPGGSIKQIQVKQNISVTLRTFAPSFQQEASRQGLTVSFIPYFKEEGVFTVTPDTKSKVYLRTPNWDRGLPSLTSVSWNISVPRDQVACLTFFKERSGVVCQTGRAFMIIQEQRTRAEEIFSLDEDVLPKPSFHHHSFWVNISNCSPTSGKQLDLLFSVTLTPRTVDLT
Description: (§1) The candidate antibodies obtained from Example 6 were subjected to gene cloning, constructed into an expression vector for a small amount of expression in CHO cells, and purified with an Fc affinity column (AT Protein A Diamond Plus. No. AA402312). Antibody purity was analyzed by HPLC and determined by Nanodrop. High-throughput affinity assay was carried out for a small amount of antibodies by Caterra. […] At the same time, 2 μg/ml antigen human CDCP1-C and 2 μg/ml human CDCP1-B were used for coating, and the antigen-antibody binding capacity was tested by ELISA for verification.

HuCDCP1-C = biological target: T3, HuCDCP1-C (human, UniProt Q9H5V8 30-667); assay: ELISA, coated antigen
T3 construct: range 30-667; expressed in HEK-293T, purified by Fc/his tag; also called human CDCP1-C; full-length extracellular domain of human CDCP1; not shown: Fc or his tag
T3 sequence (looked up): T2 sequence (looked up)
Description: as §1

B1: 3B12H5-MMAE (antibody, V domains shown)
VH: EVQLQQSGTVLARPGASVKMSCKASGYSFTIYWVHWVKQRPGQGLEWIGAVYPGNDDTSYNQNFKGKAKLTAVTSATTAYMELSSLTIDDSAVYYCTRHTYDEVFDYWGQGTTVTVSS
VL: DIVMTQSPSSLSVSLGDRVTITCKASEDIYYRLAWYQQKPGNAPRLLISGGTNLEAGIPSRFSGSGSGKDYTLSITSLQTEDVAIYYCQHYWNTPWTFGGGTKLEIK
modifications: vc-MMAE coupled after reduction, sites not stated; DAR 3.2
IC50 (nM), killing of HCT116 cells (120 h), CellTiter-Glo [1]: 6.87 nM | IC50 (nM), killing of MDA-MB-231 cells (120 h), CellTiter-Glo [1]: > 40 nM | IC50 (nM), killing of PC3 cells (96 h), CellTiter-Glo [1]: 0.0225 nM

B2: 6A7-MMAE (antibody, V domains shown)
VH: EVQLKESGAELVRPGASVKVSCKASGYSFTSYWMNWVKQRPGQGLEWIGMIHPSDSETKLNQKFRDRASLTVDKSSSTAYMQLSSPTSEDSAVYYCTINYESFYYAMDYWGQGTTVTVSS
VL: DIVMTQSPASLAVSLGQRATISCRASKSVSTSGYSYMHWYQQKPGQPPKLLLYLASNLESGVPARFSGSGSGADFTLNIHPVEEEDAATYYCLHSRELPYTFGGGTKLEIK
modifications: vc-MMAE coupled after reduction, sites not stated; DAR 3.6
IC50 (nM), killing of HCT116 cells (120 h), CellTiter-Glo [1]: 5.84 nM | IC50 (nM), killing of MDA-MB-231 cells (120 h), CellTiter-Glo [1]: > 40 nM | IC50 (nM), killing of PC3 cells (96 h), CellTiter-Glo [1]: 0.0527 nM

B3: G10F6-MMAE (antibody, V domains shown)
VH: EVKLVESGPGILQPSQTLSLTCSFSGFSLSTSGMGVSWVRQPSGKGLEWLAHIYWDDDKRYNPSLKGRLTISKDTPRNQVFLEITSVDTTDTATYYCARVPGNWDEDAMDYWGQGTTVTVSS
VL: DIQMTQSPLSLPVSLGDQASISCRSSQNIVHTNGNTYLEWYLQKVGQSPKLLIYKVSNRFSGVPDRFSGSGSGTDFTLKISRVEAEDLGVYYCFQGSHVPYTFGGGTKLEIK
modifications: vc-MMAE coupled after reduction, sites not stated; DAR 3.6
IC50 (nM), killing of HCT116 cells (120 h), CellTiter-Glo [1]: 1.29 nM | IC50 (nM), killing of MDA-MB-231 cells (120 h), CellTiter-Glo [1]: > 40 nM | IC50 (nM), killing of PC3 cells (96 h), CellTiter-Glo [1]: 0.0106 nM

B4: 1CP-125-MMAE (antibody, human IgG1, kappa, V domains shown)
VH: QVQLVQSGAEVKKPGASVKVSCKASGYNFISYWLHWVRQAPGQGLEWMGGIYPGNTDTTYNQKFKGRVTMTADTSTSTVYMELSSLRSEDTAVYYCIRYDYDRGMDYWGQGTLVTVSS
VL: DIQMTQSPSSLSASVGDRVTITCRASEDIYYRLAWYQQKPGKAPKLLISGATALETGVPSRFSGSGSGKDYTFTISSLQPEDIATYYCQHYWNIPWTFGQGTKVEIKR
modifications: vc-MMAE coupled after reduction, sites not stated; DAR 4.3
IC50 (nM), killing of HCT116 cells (120 h), CellTiter-Glo [2]: 0.668 nM | IC50 (nM), killing of HCC1806 cells (120 h), CellTiter-Glo [3]: 0.272 nM

B5: 1CP-063 (antibody, V domains shown)
VH: EVNLKESGPELVKPGASVRISCKASGYTFTSYYIHWVKQRPGQGLEWIGWIYPGNVNSKYNEKFKGKVTLTADKSSITAYMQLSSLTSEDSAVYFCAREDYGHYYAMDYWGQGTTVTVSS
VL: DIVMTQSPSSMYASLGERVTITCKASQDIKSYLSWYQQKPWKSPKTLIYYATSLADGVPSRFSGSGSGQDYSLTISSLESDDTATYYCLQYGESPWTFGGGTKLEIK
notes: murine hybridoma mAb
binding result [4]: binds

B6: 1CP-064 (antibody, V domains shown)
VH: EVKLVESGPGILQPSQTLSLTCSFSGFSLSTSGMGVGWIRQPSGKGLEWLAHIWWDDVKRYNPALKSRLTISKDTSSSQVFLKIASVDTADTATYYCARMGGKVPWFAYWGQGTTVTVSS
VL: DVVMTQTPASLAVSLGQRATISCRASESVDSYGNSFMHWYQQKPGQPPKLLIYLASNLESGVPARFSGSGSRTDFTLTIDPVEADDAATYYCQQNNEDPWTFGGGTKLEIK
notes: murine hybridoma mAb
binding result [4]: binds

B7: 1CP-062 (antibody, V domains shown)
VH: EVKLVESGPGLVAPSQSLSITCTVSGFSLTTYGVHWVRQPPGKGLEWLVVIWSDGNTTYNSALKSRLSINKDNSKSQVFLKMNSLQTDDTAMYYCAKNYRNYDYAMDYWGQGTTVTVSS
VL: B6 VL with V2I, L54R, V62I, D80N, A87V, N95S, W100Y
notes: murine hybridoma mAb
binding result [4]: binds

B8: 1CP-065 (antibody, V domains shown)
VH: EVTLKESGAELVRPGALVKLSCKASGFNIKDYYMHWVKQRPEQGLEWIGWIDPENDNTIYDPKFQGKASITADTSSNTAYLQLSSLTSEDTAVYYCARFYGSYYYAMDYWGQGTTVTVSS
VL: DIVMTQSPKFMSTSVGDRVSITCKASQDVSTAVTWYQQKPGQSPKLLIYWASTRHTGVPDRFTGSGSGTDYTLTISSVQAEDLALYYCQQHYSTPYTFGGGTKLEIK
notes: murine hybridoma mAb
binding result [4]: binds

B9: SB1 (antibody, V domains shown)
VH: QVQLQQSGPDLVRPGESVKISCKGSGYTFTDHAIHWVRQSHAKSLEWIGVISFSYDNTKYNQNFKGKATMTVDKSSNTAYMELARLTSEDSAIYYCARDCYGSNRGYFDYWGQGTTLTVSS
VL: DIRMTQSPSSMYASLGERVTITCKASQDINRFLSWFLQRPGKAPKTLIYRANNLVEGVPSRFSGSGSGQDYSLIISNLEYEDMGIYYCLQYDEFPRTFGGGTKLEIK
notes: single B cell antibody, expressed in CHO
Kd (huCDCP1-his): 1610 pM | EC50 (HuCDCP1-C): 92 pM

B10: SB2 (antibody, V domains shown)
VH: DVKLVESGGGLVKPGGSLKLSCAASGFTFSSYTMSWVRQTPEKRLEWVATISSGGIYTYYPDSVKGRFTISRDNAKDTLYLQMNSLRSEDTAVYYCSSPHSYAISYGYFDYWGQGTTLTVSS
VL: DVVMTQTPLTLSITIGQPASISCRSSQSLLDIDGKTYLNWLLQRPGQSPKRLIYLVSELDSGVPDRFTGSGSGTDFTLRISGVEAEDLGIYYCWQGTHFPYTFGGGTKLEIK
notes: as for B9
Kd (huCDCP1-his): 1440 pM | EC50 (HuCDCP1-C): 45 pM

B11: SB3 (antibody, V domains shown)
VH: B10 VH with K13E, T28P, N84S
VL: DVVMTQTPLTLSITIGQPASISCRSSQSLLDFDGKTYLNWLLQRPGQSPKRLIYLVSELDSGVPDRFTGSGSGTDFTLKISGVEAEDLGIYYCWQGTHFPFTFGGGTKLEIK
notes: as for B9
Kd (huCDCP1-his): 201 pM | EC50 (HuCDCP1-C): 49 pM

B12: SB4 (antibody, V domains shown)
VH: QVQLQQSGAELVRPGTSVKISCKASGYTFTNYWLGWVKQRPGHGLEWIGDNYPGDNYRNFNEKFKGKATLTTDASSSTAYLQLSSLISEDSAVYFCTRSGGSRYYTMDYWGQGTSVTVSS
VL: DIVMTQAAFSNPVTLGTSASISCRSSRSLLHNNGITYLYWYLQKPGQSPQLLIYQMSNLASGVPDRFHSSGSGTDFTLSISRVEAEDVGVYYCAQNLDLPYTFGGGTKLEIK
notes: as for B9
Kd (huCDCP1-his): 7660 pM | EC50 (HuCDCP1-C): 71 pM

B13: SB6 (antibody, V domains shown)
VH: QGQMQQSGAELVKPGASVKLSCKTSGFTFNSSYITWLKQKPGQSLEWIAWIFAGTGGTYYNEKFTDKAQLTVDTTSSTAYMQFSSLTTEDSAIYYCARHGLGYDYWGQGTTLTVSS
VL: SIVMTQTPKFLLVSAGDRVTITCKASQSVNTDVAWYQQKSGQSPKLLIYSASNRYTGVPDRFTGSGYGTDFTFTISTVQAEDLAVYFCQQDHSSPPWTFGGGTKLEIK
notes: as for B9
Kd (huCDCP1-his): 722 pM | EC50 (HuCDCP1-C): 27 pM

B14: SB7 (antibody, V domains shown)
VH: QVQLQQSGPELVSPGESVKISCKGSGYTFTDYAVHWVKQSHSKSLEWIGVKSVYYGITKYSQNFKDKATMTVDKSSSTAYMELARLTSEDSAIYYCARDSYGSSRGYFDYWGQGTTLTVSS
VL: DIKMTQSPSSIYVSPGERVTITCKASQDINSFLSWFQQKPGKSPKTLIYRANRLVDGVPSRFSGSGSGQDYSLTISSLEYEDMGIYYCLQYDEFPRTFGGGTKLEIK
notes: as for B9
Kd (huCDCP1-his): 1740 pM | EC50 (HuCDCP1-C): 34 pM
